This is an account of results in patent publication US20260365696A1, “INHIBITORS OF PTP1B / NCK1 INTERACTION AND METHODS OF MAKING AND USING SAME” (Radella Pharmaceuticals LLC, priority 2023, published 2026).

Where two headings read alike, the source gives them in different places. No end group written: not given here.

A word on the Kd: it is the concentration at which binding is half-saturated. Read a low Kd as higher affinity.

For experiment [1], the system named is db/db mice. Put plainly: db/db genetic mouse model of diabetes and obesity. Type of experiment: in vivo. The source says:
Animals: All animals were housed and tested following European (Directive on the Protection of Animals used for Scientific Purposes, 2010/63/EU) and UK Home Office regulations. Experiments were approved by the University Ethics Board and carried out in accordance with the Animal (Scientific Procedures) Act 1986 and following ARRIVE guidelines. Db/db male mice (~4 weeks old) were purchased from Jackson, USA. All mice received standard mouse chow diet and had ad libitum access to food and water and were kept in a 12 h light/dark cycle.
Treatments: Mice were assigned and counterbalanced according to their body weights in to the following groups: control PBS (n=10); MD18 at 15 mg/kg (n=7), 30 mg/kg (n=8), or 45 mg/kg (n=7); or MD20 at 15 mg/kg (n=9), 30 mg/kg (n=10) or 45 mg/kg (n=7). MD18 and MD20 were administered once daily via subcutaneous (SC) injection for 41 days, whereas control mice received a daily SC injection of vehicle (PBS). MD18 and MD20 were kept in −20 °C and dissolved in sterile phosphate buffered saline (PBS).
Body weights and body mass composition: Body weights were recorded twice weekly during the study, and fat mass and lean mass composition was analysed using an EchoMRI scanner (EchoMedical Systems, Houston, TX, U.S.A.).
Metabolic measurements: All animals were five-hour fasted before obtaining basal glucose measurements and GTT, ITT, and corresponding treatments were administered 1 hour before glucose measurements. Tail blood glucose was measured using AlphaTRAK 2 glucose strips and glucometer (Abbot, UK), or blood was collected and glucose assay (AB65333, Abcam) was performed where readings were too high to be recorded via glucometer. Human Actrapid Insulin (NovaNordisk) at 1 IU/kg dose was administered during ITT.
Serum and liver assays: Trunk-derived blood was collected from 5 h-fasted mice into serum separator microtubes and kept at −80 °C. Serum was used for insulin (#EZRMI-13K, Merck) and leptin (#90030, Crystal Chem) analyses.
Statistical analyses: Data were reported as means±SEM and analysed using one- or two-way ANOVA with Bonferroni post hoc tests, as appropriate. GraphPad Prism (V8, GraphPad Software, Inc., San Diego, California, USA) was used for statistical analyses. P-values <0.05 were considered significant.

Experiment [2] addresses T1, SH3-2 domain of NCK1 (Homo sapiens, UniProt P16333).
T1 construct: To amplify the NCK1 SH3-2 domain, the primers; 10xHis tag with TEV site (vector pSF-OXB20-NH2-10HIS) (N, cleaved yes); made in house; host or cells: E. coli C43(DE3)
Put plainly: Isothermal titration calorimetry (ITC) binding to NCK1 SH3-2 domain. The gist of the method: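 Peptides (3-7.5 mM) titrated into TEV-cleaved, His-purified human NCK1 SH3-2 domain (0.125-0.3 mM) at 25 °C in 10 mM sodium buffer with sodium chloride, pH 8.0. One 0.2 μL then 19 × 2 μL injections; KD from fits with 0.8-1.2 sites, averaged over three runs.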

For experiment [3], the target named is T2, NCK1 SH3-2 domain (human).
T2 chain: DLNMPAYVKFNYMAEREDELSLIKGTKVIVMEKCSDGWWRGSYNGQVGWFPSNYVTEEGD
Nature of the experiment: ITC. In general terms: Isothermal titration calorimetry measures the heat released or taken up as one component is titrated into another.

The target of experiment [4] is T2, NCK1 SH3-2 domain. Nature of the experiment: ITC.
The target of experiment [5] is T2, NCK1 SH3-2 domain. Nature of the experiment: ITC.
In experiment [6] the target is T2, NCK1 SH3-2 domain. Nature of the experiment: ITC.
For experiment [7], the target named is T2, NCK1 SH3-2 domain. Put plainly: ITC.
The target of experiment [8] is T2, NCK1 SH3-2 domain. Put plainly: ITC.

Consider Ac-PPRPPKR-NH2 [MD18, Ac-PPRPPKR-NH2], for which the leptin levels entry in experiment [1] (15 mg/kg SC daily, about 6 weeks, vs control) is recorded as “A trend for decreased leptin levels”. The “glucose clearance during GTT” value in experiment [1] (15 mg/kg SC daily, week 4, vs control) is on record as “better glucose clearance at 15-minutes post-glucose injection”. Moreover, in experiment [1] (15 mg/kg and 30 mg/kg SC daily), the fat mass gain result is “inhibited fat mass gain”. Moreover, the body weight gain entry in experiment [1] (15 mg/kg and 30 mg/kg SC daily, vs control) is listed as “significantly inhibited body weight gain”. The fasted insulin levels entry in experiment [1] (30 mg/kg SC daily, about 6 weeks, vs control) is “A trend for lower fasted insulin levels”. Also, the basal glucose levels entry in experiment [1] (5-hour-fasted, SC daily, vs vehicle) was “No significant differences”. In experiment [1] (SC daily, compared to MD20), the “efficacy with respect to inhibiting body weight, inhibiting fat mass gain, and improving glucose clearance during GTT” value is “better efficacy as compared to MD20 treatment”. For the same molecule, the “insulin tolerance test (ITT)” value in experiment [1] (SC daily, week 6, 1 IU/kg insulin, vs control) is given as “did not detect any significant differences”. Besides, the Kd is not above 300 µM in experiment [2] (Peptide truncation analysis, ITC, 25 °C, pH 8.0) and less than 193 µM in experiment [2] (ability to bind SH3-2 domain of NCK1, stated in text).

B1: MH004 (peptide)
chain: Ac-PPPEHIPPPPRAPKR-NH2
Regarding B1, the Kd in experiment [3] is less than 300 µM.

B2: MH121 (peptide)
chain: Ac-PPRYPKR-NH2
B2 displayed a Kd in experiment [4] of less than 600 µM.

B3: MH111 (peptide)
chain: Ac-PPRMPKR-NH2
With B3, the binding result in experiment [5] is “no binding”.

B4: MH125 (peptide)
chain: Ac-PPRVPKR-NH2
Molecule B4 displayed a Kd in experiment [4] of less than 300 µM.

B5: MSJ015 (peptide)
chain: Ac-PPPAHIPPPPRPPKR-NH2
In the case of B5, the Kd in experiment [3] was less than 300 µM.

B6: MH118 (peptide)
chain: Ac-PPRWPKR-NH2
As for B6, the binding result in experiment [5] is given as “no binding”.

B7: MH064 (peptide)
chain: Ac-PPRPPKRIL-NH2
B7 displayed a Kd in experiment [6] of less than 300 µM.

B8: MH089 (peptide)
chain: Ac-PPPEHIPPPPRPPKRILEPH-NH2
In the case of B8, in experiment [6], the Kd was less than 300 µM.

B9: MH136 (peptide)
chain: SVQDQWKELSHEDLEPPPEHIPPPPRPPKR-NH2
modifications: not fully specified (N-terminus)
Consider B9, for which the Kd in experiment [6] was less than 300 µM.

B10: MH039 (peptide)
chain: Ac-EHIPPP-NH2
In experiment [7], B10 displayed a Kd of more than 1000 µM.

B11: MH108 (peptide)
chain: Ac-PPRSPKR-NH2
B11: the binding result in experiment [5] was “no binding”.

B12: MH062 (peptide)
chain: Ac-PPRRPKR-NH2
On to B12, for which the Kd in experiment [4] was less than 600 µM.

B13: MH130 (peptide)
chain: Ac-PPREPKR-NH2
Consider B13, for which, in experiment [5], the binding result is “no binding”.

B14: MH063 (peptide)
chain: Ac-PPRPPKRI-NH2
Take B14: the Kd in experiment [8] and in experiment [6] was less than 300 µM throughout.

B15: MH128 (peptide)
chain: Ac-PPRDPKR-NH2
For B15, the binding result in experiment [5] is “no binding”.

B16: MD17 (peptide)
chain: Ac-PPPEHIPPPPRPPKR-NH2
On to B16, for which the Kd in experiment [3] was less than 300 µM.

B17: MH137 (peptide)
chain: Ac-PPPEHIPPPPRPPKRILEPHNGKCREFFPN-NH2
As to B17, the Kd in experiment [6] is less than 300 µM.

B18: MH097 (peptide)
chain: Ac-PPRIPKR-NH2
The molecule B18 registered a Kd in experiment [4] of less than 300 µM.

B19: MH131 (peptide)
chain: Ac-PPRQPKR-NH2
In the case of B19, in experiment [5], the binding result is on record as “no binding”.

B20: MH135 (peptide)
chain: Ac-WKELSHEDLEPPPEHIPPPPRPPKR-NH2
In experiment [6], B20 displayed a Kd of less than 300 µM.

B21: MH006 (peptide)
chain: Ac-PPPEHIPPPPRPPAR-NH2
For B21, the Kd in experiment [3] was less than 300 µM.

B22: MH134 (peptide)
chain: Ac-PPPEHIPPPPRPPKRILEPHNGKCR-NH2
For B22, the Kd in experiment [6] is less than 300 µM.

B23: MH127 (peptide)
chain: Ac-PPRNPKR-NH2
B23: the binding result in experiment [5] is “no binding”.

B24: MH115 (peptide)
chain: Ac-PPRTPKR-NH2
With B24, the Kd in experiment [4] is less than 600 µM.

B25: MH077 (peptide)
chain: Ac-PPPEHIPPPPRPPKRILE-NH2
B25 gave a Kd in experiment [6] of less than 300 µM.

B26: MH129 (peptide)
chain: Ac-PPRCPKR-NH2
On to B26, for which, in experiment [5], the binding result is given as “no binding”.

B27: MSJ018 (peptide)
chain: Ac-PPPEHIAPPPRPPKR-NH2
Consider B27, for which the Kd in experiment [3] was less than 300 µM.

B28: MH065 (peptide)
chain: Ac-PPRPPKRILE-NH2
Regarding B28, the Kd in experiment [6] was less than 300 µM.

B29: MSJ019 (peptide)
chain: Ac-PPPEHIPAPPRPPKR-NH2
The molecule B29 gave a Kd in experiment [3] of less than 300 µM.

B30: MH007 (peptide)
chain: Ac-PPPEHIPPPPRPPKA-NH2
Molecule B30 returned a Kd in experiment [3] of more than 1000 µM.

B31: MH104 (peptide)
chain: Ac-PPRKPKR-NH2
B31: the Kd in experiment [4] is less than 600 µM.

B32: MH132 (peptide)
chain: Ac-PPRHPKR-NH2
B32: the binding result in experiment [5] is “no binding”.

B33: MH037 (peptide)
chain: Ac-PPPPRP-NH2
The molecule B33 gave a Kd in experiment [7] of more than 1000 µM.

B34: MH093 (peptide)
chain: Ac-PPRGPKR-NH2
As for B34, the binding result in experiment [5] is “no binding”.

B35: MSJ016 (peptide)
chain: Ac-PPPEAIPPPPRPPKR-NH2
The molecule B35 showed a Kd in experiment [3] of less than 300 µM.

B36: MH067 (peptide)
chain: Ac-PPRFPKR-NH2
As for B36, in experiment [4], the Kd was more than 600 µM.

B37: MH001 (peptide)
chain: Ac-PPPEHIPPAPRPPKR-NH2
Molecule B37 yielded a Kd in experiment [3] of less than 300 µM.

B38: MH101 (peptide)
chain: Ac-PPRLPKR-NH2
B38 had a Kd in experiment [4] of less than 600 µM.

B39: MH090 (peptide)
chain: Ac-HEDLEPPPEHIPPPPRPPKR-NH2
In turn, B39 registered a Kd in experiment [6] of less than 300 µM.

B40: MH002 (peptide)
chain: Ac-PPPEHIPPPARPPKR-NH2
In the case of B40, in experiment [3], the Kd was more than 1000 µM.
